Values joined by “and” are separate entries in the source; they are usually repeats but may differ in a detail not shown here. Equal entries are not always repeated.
Target: human IgG (Sigma 14506) (human)
Experiment: co-precipitation of human IgG with viral particles by centrifugation; SDS-PAGE of pellets and supernatants

## recombinant viral particles displaying protein A on their surface (TVCV coat protein-protein A fusion, domains E and D of protein A)
  binding capacity (mg IgG/mg of viral particles): 2
scale: CP-protein A fusion molecules per IgG molecule
  CP-protein A fusion molecules per bound IgG molecule: 3 and 5

— patent US20090062514A1
